Results as given in publication PMC2193258.

Columns and labels:
[1] = molecular target: glycocalicin (the soluble extracellular domain of platelet glycoprotein Ibα) (human) (UniProt P07359); experiment: cell adhesion assay, competition
[2] = molecular target: Mac-1 (αMβ2, CD11b/CD18) on THP-1 monocytic cells (human (endogenous in THP-1)), P11215; experiment: cell adhesion assay, competition; details: remark: other sources report otherwise

Sequence of UniProt P07359 (P07359 17-531): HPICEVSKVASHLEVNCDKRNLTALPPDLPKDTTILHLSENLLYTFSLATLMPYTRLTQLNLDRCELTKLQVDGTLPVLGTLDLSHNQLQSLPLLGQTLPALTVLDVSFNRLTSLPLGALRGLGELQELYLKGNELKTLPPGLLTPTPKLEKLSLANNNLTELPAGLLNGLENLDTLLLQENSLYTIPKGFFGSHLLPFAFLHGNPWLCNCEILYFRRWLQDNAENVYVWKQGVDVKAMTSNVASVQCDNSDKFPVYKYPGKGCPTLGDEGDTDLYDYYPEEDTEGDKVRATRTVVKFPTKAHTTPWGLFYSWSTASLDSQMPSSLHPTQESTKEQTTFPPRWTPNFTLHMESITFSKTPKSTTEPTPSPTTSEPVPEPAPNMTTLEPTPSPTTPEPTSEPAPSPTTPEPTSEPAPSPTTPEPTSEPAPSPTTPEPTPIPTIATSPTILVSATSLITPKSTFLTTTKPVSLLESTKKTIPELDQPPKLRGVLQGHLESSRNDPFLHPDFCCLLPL

| percent inhibition of THP-1 adhesion to GP Ibα [1] [%] | percent inhibition of THP-1 adhesion to GP Ibα [2] [%] | Molecule |
| --- | --- | --- |
| 83 | – | 39/34-kD dispase fragment of vWf encompassing the A1 domain (Leu480–Gly718) (domain or fragment) |
| – | 99 | human fibrinogen, P02671-2 20-644; P02675 31-491; P02679-2 27-437 (complex) chain 1: ADSGEGDFLAEGGGVRGPRVVERHQSACKDSDWPFCSDEDWNYKCPSGCRMKGLIDEVNQDFTNRINKLKNSLFEYQKNNKDSHSLTTNIMEILRGDFSSANNRDNTYNRVSEDLRSRIEVLKRKVIEKVQHIQLLQKNVRAQLVDMKRLEVDIDIKIRSCRGSCSRALAREVDLKDYEDQQKQLEQVIAKDLLPSRDRQHLPLIKMKPVPDLVPGNFKSQLQKVPPEWKALTDMPQMRMELERPGGNEITRGGSTSYGTGSETESPRNPSSAGSWNSGSSGPGSTGNRNPGSSGTGGTATWKPGSSGPGSTGSWNSGSSGTGSTGNQNPGSPRPGSTGTWNPGSSERGSAGHWTSESSVSGSTGQWHSESGSFRPDSPGSGNARPNNPDWGTFEEVSGNVSPGTRREYHTEKLVTSKGDKELRTGKEKVTSGSTTTTRRSCSKTVTKTVIGPDGHKEVTKEVVTSEDGSDCPEAMDLGTLSGIGTLDGFRHRHPDEAAFFDTASTGKTFPGFFSPMLGEFVSETESRGSESGIFTNTKESSSHHPGIAEFPSRGKSSSYSKQFTSSTSYNRGDSTFESKSYKMADEAGSEADHEGTHSTKRGHAKSRPVRGIHTSPLGKPSLSP chain 2: QGVNDNEEGFFSARGHRPLDKKREEAPSLRPAPPPISGGGYRARPAKAAATQKKVERKAPDAGGCLHADPDLGVLCPTGCQLQEALLQQERPIRNSVDELNNNVEAVSQTSSSSFQYMYLLKDLWQKRQKQVKDNENVVNEYSSELEKHQLYIDETVNSNIPTNLRVLRSILENLRSKIQKLESDVSAQMEYCRTPCTVSCNIPVVSGKECEEIIRKGGETSEMYLIQPDSSVKPYRVYCDMNTENGGWTVIQNRQDGSVDFGRKWDPYKQGFGNVATNTDGKNYCGLPGEYWLGNDKISQLTRMGPTELLIEMEDWKGDKVKAHYGGFTVQNEANKYQISVNKYRGTAGNALMDGASQLMGENRTMTIHNGMFFSTYDRDNDGWLTSDPRKQCSKEDGGGWWYNRCHAANPNGRYYWGGQYTWDMAKHGTDDGVVWMNWKGSWYSMRKMSMKIRPFFPQQ chain 3: YVATRDNCCILDERFGSYCPTTCGIADFLSTYQTKVDKDLQSLEDILHQVENKTSEVKQLIKAIQLTYNPDESSKPNMIDAATLKSRKMLEEIMKYEASILTHDSSIRYLQEIYNSNNQKIVNLKEKVAQLEAQCQEPCKDTVQIHDITGKDCQDIANKGAKQSGLYFIKPLKANQQFLVYCEIDGSGNGWTVFQKRLDGSVDFKKNWIQYKEGFGHLSPTGTTEFWLGNEKIHLISTQSAIPYALRVELEDWNGRTSTADYAMFKVGPEADKYRLTYAYFAGGDAGDAFDGFDFGDDPSDKFFTSHNGMQFSTWDNDNDKFEGNCAEQDGSGWWMNKCHAGHLNGVYYQGGTYSKASTPNGYDNGIIWATWKTRWYSMKKTTMKIIPFNRLTIGEGQQHHLGGAKQAGDV |
